# The nanobody polyreactivity screen of Harvey et al. (2022)
# Experiment: yeast display, Sf9 membrane polyspecificity reagent, FACS + sequencing; frameworks hold sequencing errors
# Procedure, shortened: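 Nanobodies came from a synthetic yeast display library in Saccharomyces cerevisiae BJ5465, induced with galactose for 36–48 hours and stained for 1 hour at 4 °C with 10% biotinylated, detergent-solubilized Sf9 membrane reagent. Cells were enriched on streptavidin microbeads and then FACS-sorted, with low and high (top ~1%) gates set on anti-HA fluorescence for expression and streptavidin fluorescence for reagent binding. Each polyreactivity label reflects the gate a clone came from. Genes were amplified by colony PCR, sequenced by MiSeq 2 × 250 and filtered by CDR length.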
row,Sequence,polyreactivity (PSR sort gate)
1,QVQLVESGGGLVQAGGSLRLSCAASGYIIWDYAMGWYRQAPGKEREFVATISRSVGSTYYADSVKGRFTISRDNAKNTVYLQMNSLKPEDTAVYYCAAVTWGEGFDYWGQGTQVTVSS,low polyreactivity
2,QVQLVESGGGLVQAGGSLRLSCAASGLTFTPNAMGWYRQAPGKEREFVAAITWRGGRTYYADSVKGRFTISRDNAKNTVYLQMNSLKPEDTAVYYCAADSFKGYDYWGQGTQVTVSS,high polyreactivity
3,QVQLVESGGGLVQAGGSLRLSCAASGRTFGINAMGWYRQAPGKERELVARIRKTVGSTYYADSVKGRFTISRDNAKNTVYLQMNSLKPEDTAVYYCAADLRYGYLYPYDSWGQGTQVTVSS,high polyreactivity
4,QVQLVESGGGLVQAGGILRLSCAASGRTIYYYAMGRYRQAPRKERELVASISWSGGSTYYADSVKGRFTISRDNAKNTVYLQMNSLKPEDTAVSYCNAQYHTYRWLYAVYLSGDYWGQGTQVTVSS,low polyreactivity
5,QVQLVESGGGLVQAGGSLRLSCAASGFTFGYYAMGWYRQAPGKERELVAAISASGASTYYADSVKGRFTISRDNAKNTVYLQMNSLKPEDTAVYYCAARPGQLTSPVTRTRYNYWGQGTQVTVSS,low polyreactivity
6,QVKLVESGGGLVQAGGSLRLSCAASGRNFYVYGMGWYRQAPGKERELVASITYRCGSTSYADSVKGRFTISRDNAKNTVYLQMNSLKPEDTAVYYCNADTYYRSDYWGQGTQVTVSS,high polyreactivity
7,QVQLVESGGGLVQAGGSLRLTCAASGSTSYPYAMGWYRQEPGKERELVATITSGGRTNYADSVKGRFTISRDNAKNTVYLQMHSLKPEDTAVYYCNARFYRWRSYGYDYWGQGTQVTVSS,high polyreactivity
8,QVQLVESGGGLVQAGGSLRLSCAASGSTFFTNAMGWYRQAPGKERELVATITWSGGSTYADSVKGRFTISRDNAKNTVYLQMNSLKPEDTAVFYCAAESSSYWGDQGGALWLYDYWGQGTQVTVSS,low polyreactivity
9,QVQLVDSGRGLVQAGGSLRLSCAASGSTFRWNAMGWYRQAPGKERELVAAIDNSGTSTYYADSVKGRFTISRDNAKNTVYLQMNSLKPDDTAVYYCNVRISNTAYRYPTFDYWGQGTQVTVSS,low polyreactivity
10,QVQLVESGGGLVQAGGSLRLSCAASGRTFVRYTMGWYRQAPGKERELVAAISISGGRTYYADSVQGRFTISRDNAKNTVYLQMNSLKPEDTAVYYCAKDYLGGQLASTGGYDYWGLGTQVTVSS,low polyreactivity
11,QLQLVESGGGLVQAGGSLRLSCAASGRTFQPYAMGWYRQAPGKERELVAAITSIGGSTFYADSVKGRFTISRDNAKNTVYLQMNSLKPEDTAVYYCAADPYTLYWYYWYGTSGFDYWGQGTQVTVSS,low polyreactivity
12,QVQLVDSGGGLVQAGGSLSLICAASGSNFRYYAMGWYRKAPGKERELVDAINWSGGSTYYADSVKGRFTSSRDNAKNTVYLQMNSLKPEHTAVYSCNAVGWRSLHRDYWGQGTQVTLSS,high polyreactivity
13,QVQLVESGGGLVQAGGSLRLSCAASGSIFRWYAMGWSRQAPGKERQLVAAIRGNGASTYYADSVKGRFTISRDNAKNTVYLQMNSLKPEDTAVYYCAAYPSFYHSQYGYWGQGTQVTVSS,high polyreactivity
14,QVQLVDSGGGLVQAGGILRLSCAASGLTFYDNAMGWYRQAPAKERELVAAISDSGGSTYYADSVKGRFTISRDNAKNTVFLQMNSLKPEDTAVYYCAAAGWQANWEYEYWGQGTQVTVSS,high polyreactivity
15,QVQLVESGGGLVQAGGSLRLSCAASGRTFRNNAMGWYRQAPGKERELVAAITSGGSTNYADSVKGRFTISRDNAKNTVYLQMNSLKPEDTAVYYCAKDFWYVTGGWSSGMDYWGQGTQVTVSS,low polyreactivity
16,QVQLVESGGGLVQAGGSLRLSCAASGFTFPFYAMGWYRPAHRKERELVAAITASGGSTYYADSVKGRFTISRDNAKYTVYLQMNSLKPEDTAVYYCATSIYRGYYYWGQGTQVTVSS,high polyreactivity
17,QVQLQESGGGLVQAGGSLRLSCAASGSIFHLHIMCWYRQAPGKESESVAAISYGTSTYYADSVKGRFTICRDNAKNTVYLQMNSPKPDDTAVYYCAALFLVSKHHHYWGEGTQVTVSS,low polyreactivity
18,QVQLVDSGGGLVQAGGSLRLSCAASGSIFTAYAMGWYRQAPGKERELVAAITSGGSTNYADSVKGRFTISRDNAKNTVYLQMNSLKPEDTAVYYCNADDYWLDSWSSVLWYDYWGQGTQVTVSS,low polyreactivity
19,QVQLVESGGGLVQAGGSLRLSCAASGSIFYAYALGWYRQAPGKERELVAVISRGGITNYADSVKGRFTISRDNAKNTVYLQMNSLKPEDNAVYYCAAATSACGYLRRYGYWGQGTQVTVSS,low polyreactivity
20,QVQLVESGGGLVQAGGSLRLSCAASGRIFWHNAMGWYRQAPGKERELVAAITGGGSTYYADSVKGRFTISRDNAKNTVYLQMNSLKPEDTAVYYCATLGSLRYYWPGYDYWGQGTQGTVSS,high polyreactivity

row,Sequence,polyreactivity (PSR sort gate)
1,QFQLLESGGGLVHAAGSLRLSSAASVSNFLSNAMGWYRQAPGKETELVAAITTSGTSTFYADSVKGRFTSSRDNAKNTVYLHINSLTPEDTEVYCAKDYLPYLHFVAPSTGDYDYWGQGTQVTVSS,low polyreactivity
2,QVQLVESGGGLVQAGGSLRLSCAASGRTFLYNAMGWYRQAPGKERELVASLTRRGGTTYYADSVKGRFTISRDFAKNNVYFQMISLKPEVTAVYYCNAQPGISYYYYGHWYGYWGQGTQVTVSS,high polyreactivity
3,QVQLVESWGGLFQAGGSLRLSCAASGRTFSYNAMGWYRQAPGKERELVAAMTWRGSTTYYADSVKGRFTISRDHAKNTVYLQMNSLKPEDTAVYYCADATGQPYILDYWGQGTQVTVSS,low polyreactivity
4,QVQLVESGGGLVQAGGSLSLSCAASGLIFITYAMGWYRQAPGKERELVATITLRGGSTYYADSVKGRFTISRDNAKNTVYLQMNSLKPEDTAVYYCAADVGYWGRSRGYPSDDYDYWGQGTQVTVSS,low polyreactivity
5,QVQLVESGGGLVQAGGSLRLSCAASGTIFFFYVMGWYRQAPGKERELVAAITYSGGSTFYADSVKGRFTISRDNAKNTVYLQMNSLKPEDTAVYYCAAVYGQWTPLDPYNHWGQGTQVTVSS,low polyreactivity
6,QVQLVESGGGLVQAGGSLRLSCAASGLTIRYYAMGWYRQAPGKERELVAAITRGGSTYYADSVKGRFTISRDNAKNTVYLQMNSLKPDDTAVYYCAAYDVRYNTYDYDYWGQGTQVTVSS,high polyreactivity
7,QVQLVESGGGLVQAGGSLRLSCAASGNTFSTYGMGWYRQAPGKERELVAGITSDGRTNYADSVKGRFTISRDNAKNTVYLQMNSMKPEVTAVYYCAAEWASRFAVFWAYPKYDYWGQGTQVTVSS,low polyreactivity
8,QVQLVESGGGIFQAGGSLRLSCAASGFTFQYYAMGWYRQAPGKERELVAAISRRGGRTDYADSVKGRFTISRDNAKNTVYLQMNSLKPEDTAVYYCAAAVASPYDYWGLGTQVTVSS,high polyreactivity
9,QVQLVESGGVVVQAGGSLRLSCAASGFTIDYYAMGWYRQARGQERELVATINGASYTNYADSVKGRFTISRDNAKNTVYLQMNSLKPEDTAVYYCNARYYGPDFVLAYDYWGQGTQVTVSS,low polyreactivity
10,QVQLVESGGGLVQAGGSLRLSCAASGLIFDYYAMGWYRQAPGKERELVASINNRGGSTFYADSVKGRFTISRDNAKNTVYLQMNSLKPEDTAVYYCNAVRRTGGHGDYWGQGTQVTVSS,high polyreactivity
11,QVQLVESGGGLVQAGGSLRLSCAASGRILGRNAMGWYRQAPGKEREFVAGISYSGTSTYYADSVKGRFTISRDNAKNTVYLQMNSLKPEDTAVYYCNVKNQVYRRYYYWGQGTQVTVSS,high polyreactivity
12,QVQLVESGGGLVQAGGSLRLSCAAPGLTFWSYAMGWYRPAPGKERELVADITYRGGSTYYADSVKGRFTISRDNAKNTVYLQMNSLKPEDTAVYYCAARKKYRFDYWGQGTQVTVSS,high polyreactivity
13,QVQLVEAGGGLVQAGGSLRLSCAASGRIIIYNAMGWYRQPPGKERELVAAISSTGGSTNYADSVKGRFTISRDNAMNSVYLQMNSLKPEDTAVYYCNALPGRASLRYNYWGQGTQVTVSS,high polyreactivity
14,QVQLVESGGGLVQAGGSLRLSCAASGNIFRYNAMGWYRQAPGKERELVAAISSGGSTYYADSVKGRFTISRDNAKNTVYLQMNSLKPEDTAVYYCNRRRWLWQTARGDYWGQGTQVTVSS,high polyreactivity
15,QVQLVESGGGLVQAGGSLRLSCAASGRTFGNNAMGWYRQAPGKERELVASISSSGGTNYADSVKGRFTISRDNAKNTVYLLMNSLIPEDTAVYYCAKRKFTARQRFWGQGTQVTVSS,high polyreactivity
16,QVQLVESVGGLVQAGGSLRLSCAASGRIFYKNVMGWYRQAPRKERELVAAISTSTGRTYYADSVNGRFTISRDNAKNTVYLQMNSLKPEDTAVYYCNAVRGLTNGVLYRYDYWGQGTQVTVSS,high polyreactivity
17,QDQLVDSGGGLVQAGGSLRLSCAASGSIFYLYAMGWYRQAPGKEREFVAAITWRGGSTYYADSVKGRFTISRDNAKNTVYLQLNSLKPEDTAVYYCGAKLPRVYGYGFEYWGQGTQVTVSS,low polyreactivity
18,QVQLEESGGGLVQAGGSLRLSCAASGGIFLGYAMGWYRQAPGTERELVAAISDSGGSTDYADSVKGRFTISRDHAKTTVYLQTHSLKPDDTAVYYCAAERRSTAGWLYDYWGQGTQVTVSS,high polyreactivity
19,QVQLVESGGGLVQAGGSLRLSCAASGSTIYFYAMGWYRQAPGKERELVAAISGSGGRTYYADSVKGRFTISRDNAKNTVYLQMNSLKPEDTAVYYCAAEWYPYSDREFLYYYWGQGTQVTVSS,high polyreactivity
20,QVQLVESGGGLVQEGGSLRLSCAASGRTIIQNGMGWYRQAPGKERELVAAISYRGGTTSYADSVKGRFTISRDNAKNTVYLQMNSLKPEDTAVYSCAAVGHTIYATPTYYYWGQGTQVTVSS,high polyreactivity
